The source of these data is publication PMC4067530, “Evidence for a DNA-relay mechanism in ParABS-mediated chromosome segregation” (eLife, 2014).

One may read the stoichiometry N as the number of molecules, sites or subunits per partner or assembly. One may read the Km as the concentration of substrate that gives half-maximal velocity. The kcat is the number of substrate molecules converted per active site and unit of time at saturation.

The target of data set [1] is Caulobacter crescentus ParA (wild type) (C. crescentus). The experiment in a line: SEC; +ATP: ParA freed of ATP (EDTA, buffer exchange), then mixed with 2.5 mM Mg-ATP, 10 min at room temperature; 50 µl at approximately 50 µM on Superdex 75 10/300 GL in 25 mM Hepes/KOH pH 7.5, 150 mM KGlu, 5 mM MgSO4, 2 mM Mg-ATP, 0.1 mM EDTA, 1 mM DTT; monomer to dimer. A general note: SEC sorts molecules by how far they enter the pores of the column.

Data set [2] shares this target.
Data set [3] shares this target. This is another data set of the same source.
For data set [4], the target named is Caulobacter crescentus ParB-His6 (wild type) (C. crescentus). Briefly: SEC-MALS; SEC-UV/LS/RI; purified His6-ParB on Superose 6 10/30 HR in 100 mM HEPES pH 7.4, 150 mM NaCl, 1 mM DTT, 0.3 ml/min; monomer to dimer.
Another data set addresses T1, ParA (Caulobacter vibrioides, UniProt B8GW31, R195E).
T1 construct: full length, recombinant from E. coli BL21(DE3), pET24HT-ParA, His6 tag removed by TEV protease
Briefly: size exclusion chromatography (ATP-dependent dimerization). Type of data set: binding. The note with it: 2.5 mM Mg-ATP, pH 7.5, 150 mM potassium glutamate; mutant does not bind DNA.

The target of data set [5] is Caulobacter crescentus ParA R195E (DNA-binding deficient mutant) (C. crescentus). Briefly: SEC; +ATP: ParA freed of ATP (EDTA, buffer exchange), then mixed with 2.5 mM Mg-ATP, 10 min at room temperature; 50 µl at approximately 50 µM on Superdex 75 10/300 GL in 25 mM Hepes/KOH pH 7.5, 150 mM KGlu, 5 mM MgSO4, 2 mM Mg-ATP, 0.1 mM EDTA, 1 mM DTT; monomer to dimer.
Substrate in data set [6]: Nc1ncnc2c1ncn2[C@@H]1O[C@H](COP(=O)(O)OP(=O)(O)OP(=O)(O)O)[C@@H](O)[C@H]1O
The experiment in a line: NADH-coupled ATPase assay (pyruvate kinase/lactate dehydrogenase). In kind it is biochemical, Caulobacter vibrioides. The note with it: 10 µM ParA, 1.5 mg/ml salmon sperm DNA, no ParB, 10 mM MgSO4, 150 mM potassium glutamate, pH 7.4, 30 °C. From the text: NADH-coupled ATPase assay (pyruvate kinase/lactate dehydrogenase) on ParA | ATPase activity was dependent on the concentration of ATP (Figure 1E), resulting in a KM

T1 sequence (B8GW31 whole entry R195E): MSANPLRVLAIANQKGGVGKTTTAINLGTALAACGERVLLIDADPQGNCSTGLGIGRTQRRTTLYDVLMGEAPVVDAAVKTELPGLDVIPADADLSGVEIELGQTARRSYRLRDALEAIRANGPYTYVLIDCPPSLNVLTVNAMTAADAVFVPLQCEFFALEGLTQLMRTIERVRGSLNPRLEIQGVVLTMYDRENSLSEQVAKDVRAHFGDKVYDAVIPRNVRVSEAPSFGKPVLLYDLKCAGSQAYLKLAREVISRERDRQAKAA

Regarding “Caulobacter crescentus ParA (wild type) (enzyme)”, the stoichiometry N in data set [1] was 2.
For “Caulobacter crescentus ParB-His6 (wild type) (natural protein)”, the ParA ATPase activity (NADH-coupled assay) with DNA, increase on adding ParB (60 µM) in data set [2] was determined as 10 fold. For the same molecule, the ParA (3 µM) ATPase activity against ParB concentration in the presence of DNA, Michaelis–Menten fit: apparent K (ParB) in data set [3] stood at 80 µM. This molecule also had a stoichiometry N in data set [4] of 2.
For the molecule `Nc1ncnc2c1ncn2[C@@H]1O[C@H](COP(=O)(O)OP(=O)(O)OP(=O)(O)O)[C@@H](O)[C@H]1O` [ATP], the “size exclusion chromatography (ATP-dependent dimerization)” value on ParA is “ParAR195E mutant (Figure 1C), which can still dimerize upon ATP binding (Figure 1A)”.
As for “Caulobacter crescentus ParA R195E (DNA-binding deficient mutant) (enzyme)”, the stoichiometry N in data set [5] was 2.

B1: ParA (Caulobacter vibrioides NA1000) (protein)
chain: MSANPLRVLAIANQKGGVGKTTTAINLGTALAACGERVLLIDADPQGNCSTGLGIGRTQRRTTLYDVLMGEAPVVDAAVKTELPGLDVIPADADLSGVEIELGQTARRSYRLRDALEAIRANGPYTYVLIDCPPSLNVLTVNAMTAADAVFVPLQCEFFALEGLTQLMRTIERVRGSLNPRLEIQGVVLTMYDRRNSLSEQVAKDVRAHFGDKVYDAVIPRNVRVSEAPSFGKPVLLYDLKCAGSQAYLKLAREVISRERDRQAKAA
notes: full length, recombinant from E. coli BL21(DE3), pET24HT-ParA, His6 tag removed by TEV protease
In the case of B1, in data set [6], the Km was 150 µM and the kcat worked out at 0.00164 s⁻¹.
